According to patent US20110178017A1 (PHASEBIO PHARMACEUTICALS, published 2011):

Assays:
Assay in all cases: cell-based or functional assay
[1] = molecular target: human Vasoactive Intestinal Peptide Receptor 1 (VPAC1) (human) (UniProt P32241)
[2] = molecular target: human Vasoactive Intestinal Peptide Receptor 2 (VPAC2) (human) (UniProt P41587)
[3] = molecular target: T1, human Vasoactive Intestinal Peptide Receptor 1 (VPAC1) (human, UniProt P32241 31-457)
T1 sequence (looked up): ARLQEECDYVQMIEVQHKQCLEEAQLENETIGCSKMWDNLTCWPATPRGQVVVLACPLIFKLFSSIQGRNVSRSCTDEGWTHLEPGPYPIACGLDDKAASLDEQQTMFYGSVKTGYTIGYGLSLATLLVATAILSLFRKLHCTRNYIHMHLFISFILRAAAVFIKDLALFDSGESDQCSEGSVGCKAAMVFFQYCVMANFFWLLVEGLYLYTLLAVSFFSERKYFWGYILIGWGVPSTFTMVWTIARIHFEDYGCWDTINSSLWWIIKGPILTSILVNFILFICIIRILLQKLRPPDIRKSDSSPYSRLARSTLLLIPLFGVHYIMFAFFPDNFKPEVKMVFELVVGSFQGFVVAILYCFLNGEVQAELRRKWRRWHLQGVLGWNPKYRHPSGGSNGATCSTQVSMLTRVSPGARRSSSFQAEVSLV

Sequence of human Vasoactive Intestinal Peptide Receptor 2 (VPAC2) (human) (P41587 24-438): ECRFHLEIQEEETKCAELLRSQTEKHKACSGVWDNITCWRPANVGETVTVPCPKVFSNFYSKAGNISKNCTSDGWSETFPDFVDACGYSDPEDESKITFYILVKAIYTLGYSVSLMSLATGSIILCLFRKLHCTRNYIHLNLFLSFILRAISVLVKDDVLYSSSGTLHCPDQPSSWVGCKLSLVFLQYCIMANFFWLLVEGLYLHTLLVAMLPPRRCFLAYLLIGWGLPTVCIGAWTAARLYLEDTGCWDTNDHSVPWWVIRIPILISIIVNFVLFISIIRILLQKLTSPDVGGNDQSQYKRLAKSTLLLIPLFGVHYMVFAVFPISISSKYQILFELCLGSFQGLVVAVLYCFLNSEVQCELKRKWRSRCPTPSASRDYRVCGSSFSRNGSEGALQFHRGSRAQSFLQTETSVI

An activity (cAMP) in CHO cells expressing VPAC1, relative to native VIP (fold less active than native VIP) [1] of 1.4 and an activity (cAMP) in CHO cells expressing VPAC2, relative to native VIP (fold less active than native VIP) [2] of 1.5 were found for PB1120 (VIP-ELP1-120 fusion peptide) in this work.

B1: PB1046 (M-VIP-ELP1-120 fusion protein) (other)
chain: MHSDAVFTDNYTRLRKQMAVKKYLNSILNVPGVGVPGVGVPGGGVPGAGVPGVGVPGVGVPGVGVPGGGVPGAGVPGGGVPGVGVPGVGVPGGGVPGAGVPGVGVPGVGVPGVGVPGGGVPGAGVPGGGVPGVGVPGVGVPGGGVPGAGVPGVGVPGVGVPGVGVPGGGVPGAGVPGGGVPGVGVPGVGVPGGGVPGAGVPGVGVPGVGVPGVGVPGGGVPGAGVPGGGVPGVGVPGVGVPGGGVPGAGVPGVGVPGVGVPGVGVPGGGVPGAGVPGGGVPGVGVPGVGVPGGGVPGAGVPGVGVPGVGVPGVGVPGGGVPGAGVPGGGVPGVGVPGVGVPGGGVPGAGVPGVGVPGVGVPGVGVPGGGVPGAGVPGGGVPGVGVPGVGVPGGGVPGAGVPGVGVPGVGVPGVGVPGGGVPGAGVPGGGVPGVGVPGVGVPGGGVPGAGVPGVGVPGVGVPGVGVPGGGVPGAGVPGGGVPGVGVPGVGVPGGGVPGAGVPGVGVPGVGVPGVGVPGGGVPGAGVPGGGVPGVGVPGVGVPGGGVPGAGVPGVGVPGVGVPGVGVPGGGVPGAGVPGGGVPGVGVPGVGVPGGGVPGAGVPGVGVPGVGVPGVGVPGGGVPGAGVPGGGVPGWP
In the case of B1, the “activity (cAMP) in CHO cells expressing VPAC1, relative to native VIP” value [3] is reported as ~11 fold less active than native VIP.
